# ± gives the uncertainty stated by the source.
# Experiment: self-splicing fitness, log relative to wild type (ln ratio); higher = more splicing; Tetrahymena group I intron in knt gene, E. coli kanamycin selection, DiMSum; sequences stand for … in CUCUCU…GGAGGGAAAAGUUAUCAGGCAUGCACCUGGUAGCUAGUCUUUAAACCAAUAGAUUGCAUCGGUUUAAAAGGCAAGACCGUCAAAUUGCGGGAAAGGGGUCAACAGCCGUUCAGUACCAAGUCUCAGGGGAAACUUUGAGAUGGCCUUGCAAAGGGUAUGGUAAUAAGCUGACGGACAUGGUCCUAACCACGCAGCCAAGUCCUAAGUCAACAGAUCUUCUGUUGAUAUGGAUGCAGUUCACAGACUAAAUGUCGGUCGGGGAAGAUGUAUUCUUCUCAUAAGAUAUAGUCGGACCUCUCCUUAAUGGGAGCUAGCGGAUGAAGUGAUGCAACACUGGAGCCGCUGGGAACUAAUUUGUAUGCGAAAGUAUAUUGAUUAGUUUUGGAGUACUCGUGGUCG
# In short: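 Colonies from six replicate transformations of E. coli BL21(DE3) were pooled and amplicon-sequenced on an Illumina HiSeq 2500. The library placed an intron with all eight P1ex-region nucleotides randomised inside the knt kanamycin-resistance gene on pET-22b(+), and cells grew overnight at 37°C or 30°C on LB agar with or without 25 μg/mL kanamycin (plus 100 μg/mL carbenicillin, 50 μM IPTG, 0.2% rhamnose). Fitness is the DiMSum error-weighted combination of wild-type-normalised replicate fold changes, kanamycin versus none.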
Sequence,self-splicing fitness (ln) (30 °C),self-splicing fitness (ln) (37 °C)
GUACAGCAAUAUUACGUAGC,-0.896 ± 0.19,-2.29 ± 0.25
GCUCAGCAAUAUUACGCCGU,-0.521 ± 0.14,-1.61 ± 0.22
GGGGAGCAAUAUUACGCAAG,-3.34 ± 0.26,-1.28 ± 0.2
AGCAAGCAAUAUUACGCAAC,-3.99 ± 0.31,
UCAUAGCAAUAUUACGAGAG,-2.96 ± 0.24,-2.44 ± 0.22
AGCGAGCAAUAUUACGCUAA,-1.62 ± 0.25,-1.85 ± 0.3
AAGCAGCAAUAUUACGAUGA,-0.809 ± 0.078,-0.909 ± 0.083
AUUUAGCAAUAUUACGAGCU,-1.88 ± 0.17,-0.00846 ± 0.15
UUGGAGCAAUAUUACGCCAG,-3.07 ± 0.26,-2.07 ± 0.37
UCUUAGCAAUAUUACGUAUU,-3.1 ± 0.28,-3.54 ± 0.39
UCCAAGCAAUAUUACGCGUU,-4.5 ± 0.19,-2.33 ± 0.15
UUUUAGCAAUAUUACGCUAC,,-2.79 ± 0.31
UGACAGCAAUAUUACGCGAU,-2.5 ± 0.15,-1.46 ± 0.19
ACGAAGCAAUAUUACGCGUU,-4.06 ± 0.33,-2 ± 0.21
UGCCAGCAAUAUUACGUUCC,-1.31 ± 0.31,-2.25 ± 0.3
GUAAAGCAAUAUUACGCCGU,-0.433 ± 0.085,0.561 ± 0.11
AGCUAGCAAUAUUACGCUCA,-1.67 ± 0.25,-2.11 ± 0.37
GUUCAGCAAUAUUACGUAGC,-0.047 ± 0.087,-0.0432 ± 0.11
UAGCAGCAAUAUUACGAUGG,-1.6 ± 0.063,-0.933 ± 0.073
UUACAGCAAUAUUACGUACG,-0.291 ± 0.075,0.0876 ± 0.1
AUCUAGCAAUAUUACGGUAA,-0.976 ± 0.12,-0.736 ± 0.14

Sequence,self-splicing fitness (ln) (30 °C),self-splicing fitness (ln) (37 °C)
CUGCAGCAAUAUUACGCCCA,,-1.31 ± 0.49
UCGAAGCAAUAUUACGGCGC,-3.11 ± 0.34,-2.04 ± 0.32
UCGGAGCAAUAUUACGGCGG,-1.42 ± 0.11,-0.955 ± 0.17
UCAUAGCAAUAUUACGGCUA,-2.69 ± 0.27,-2.37 ± 0.39
AGGAAGCAAUAUUACGACGG,-1.98 ± 0.17,-0.95 ± 0.23
ACUGAGCAAUAUUACGUUUU,-4.25 ± 0.26,-2.07 ± 0.18
CUAGAGCAAUAUUACGUUAG,-1.27 ± 0.066,-0.217 ± 0.096
CGUUAGCAAUAUUACGUAUG,-2.12 ± 0.097,-0.357 ± 0.097
CCGCAGCAAUAUUACGAUGG,-4.91 ± 0.28,-2.52 ± 0.2
AGUAAGCAAUAUUACGAUCG,-0.735 ± 0.17,-0.248 ± 0.19
AAUGAGCAAUAUUACGAGCG,-3.49 ± 0.38,-1.56 ± 0.3
GUGGAGCAAUAUUACGCCUA,-3 ± 0.29,-1.96 ± 0.2
AAAAAGCAAUAUUACGGUGA,-0.824 ± 0.058,-0.362 ± 0.064
ACACAGCAAUAUUACGAACA,-1.69 ± 0.082,-1.18 ± 0.079
UUAAAGCAAUAUUACGGUAU,-2.14 ± 0.086,-1.22 ± 0.11
GACAAGCAAUAUUACGAUCG,-0.776 ± 0.086,-0.39 ± 0.11
GAUCAGCAAUAUUACGGGGA,-1.61 ± 0.12,-0.776 ± 0.12
AGAAAGCAAUAUUACGCGCG,-0.0244 ± 0.1,-0.00454 ± 0.14
CUAGAGCAAUAUUACGAGAU,-3.54 ± 0.17,-1.67 ± 0.15
GCCGAGCAAUAUUACGAAGG,-3.25 ± 0.24,-2.12 ± 0.49
UUAAAGCAAUAUUACGCAAG,-0.46 ± 0.1,0.145 ± 0.14

Sequence,self-splicing fitness (ln) (30 °C),self-splicing fitness (ln) (37 °C)
GCUGAGCAAUAUUACGCCUA,-1.55 ± 0.32,-0.595 ± 0.2
UUACAGCAAUAUUACGGCCC,-0.167 ± 0.33,
GUAUAGCAAUAUUACGUUAC,-3.43 ± 0.41,
ACAUAGCAAUAUUACGGGCA,-1.57 ± 0.11,-1.76 ± 0.098
UCGUAGCAAUAUUACGCGUU,-2.91 ± 0.26,-2.18 ± 0.26
AAAAAGCAAUAUUACGUUAA,-2.66 ± 0.12,-1.05 ± 0.093
UAUGAGCAAUAUUACGAUCU,-1.76 ± 0.23,-2 ± 0.31
GACGAGCAAUAUUACGCGUA,-1.82 ± 0.12,-1.95 ± 0.098
ACGCAGCAAUAUUACGCCCC,-0.51 ± 0.21,-0.189 ± 0.28
UACUAGCAAUAUUACGCUCG,-0.908 ± 0.13,0.0226 ± 0.15
GUUUAGCAAUAUUACGGAUU,-1.48 ± 0.097,-0.737 ± 0.12
CCAUAGCAAUAUUACGGCUU,-3.97 ± 0.31,-2.19 ± 0.2
UGACAGCAAUAUUACGGUGU,-4.28 ± 0.23,-2.52 ± 0.19
UGUUAGCAAUAUUACGCCUA,-1.17 ± 0.13,0.387 ± 0.15
CUGUAGCAAUAUUACGGGAG,-4.83 ± 0.29,-1.67 ± 0.13
UAUCAGCAAUAUUACGAGAU,-3.27 ± 0.16,-2.21 ± 0.23
GGUAAGCAAUAUUACGGUUA,-0.532 ± 0.12,-0.38 ± 0.096
AUCCAGCAAUAUUACGCGAC,-2.56 ± 0.14,-1.86 ± 0.18
GUCCAGCAAUAUUACGGGCA,-2.25 ± 0.21,-1.85 ± 0.18
